Assay results published in publication PMC11133372 (Communications Biology, 2024).
One block for each binder: values may come before it.

Target: T1, human epidermal growth factor receptor 2 (HER2) (Homo sapiens, UniProt P04626)
T1 construct: human HER2, cDNA expressed as HER2-T2A-mCherry; HER2 on the cell surface, mCherry intracellular after T2A self-cleavage; residues of it may stay on the C-terminus after self-cleavage (surmise); also called K562/HER2 cells; source: K562, lentiviral transduction with pCSII/HER2-mCherry, on the cell surface
Test: flow cytometry on cells; K562/HER2 cells incubated with 0.5-1600 nM purified scFv-scFc-H6 for 90 min at 4 °C, detected with AF488-conjugated anti-HisTag antibody; 3% FBS-PBS
Settings: one partner purified

binding result: no binding (tested: 1600 nM)
B1: scFv(Niv), scFv of PD-1 targeting nivolumab, purified as scFv-scFc-H6 fusion protein (Fc fusion)
VH: QVQLVESGGGVVQPGRSLRLDCKASGITFSNSGMHWVRQAPGKGLEWVAVIWYDGSKRYYADSVKGRFTISRDNSKNTLFLQMNSLRAEDTAVYYCATNDDYWGQGTLVTVSS
VL: EIVLTQSPATLSLSPGERATLSCRASQSVSSYLAWYQQKPGQAPRLLIYDASNRATGIPARFSGSGSGTDFTLTISSLEPEDFAVYYCQQSSNWPRTFGQGTKVEIK
notes: scFv of nivolumab; Control scFv; not shown: single-chain Fc (two human IgG1 Fc domains; residues 104-330 of UniProt P01857), C-terminal, kept; His6, C-terminal, kept

binding result: no binding (tested: 1600 nM)
B2: scFv(Dac), scFv of the CD25-targeting monoclonal antibody daclizumab, purified as scFv-scFc-H6 fusion protein (Fc fusion)
VH: QVQLVQSGAEVKKPGSSVKVSCKASGYTFTSYRMHWVRQAPGQGLEWIGYINPSTGYTEYNQKFKDKATITADESTNTAYMELSSLRSEDTAVYYCARGGGVFDYWGQGTLVTVSS
VL: DIQMTQSPSTLSASVGDRVTITCSASSSISYMHWYQQKPGKAPKLLIYTTSNLASGVPARFSGSGSGTEFTLTISSLQPDDFATYYCHQRSTYPLTFGQGTKVEVK
notes: scFv of daclizumab; Control scFv; not shown: single-chain Fc (two human IgG1 Fc domains; residues 104-330 of UniProt P01857), C-terminal, kept; His6, C-terminal, kept
